Measurements from the supplement of paper PMC7877785.
± gives the uncertainty stated by the source.

Experiment: self-splicing fitness, log relative to wild type (ln ratio); higher = more splicing; Tetrahymena group I intron in knt gene, E. coli kanamycin selection, DiMSum; sequences stand for … in CUCUCU…GGAGGGAAAAGUUAUCAGGCAUGCACCUGGUAGCUAGUCUUUAAACCAAUAGAUUGCAUCGGUUUAAAAGGCAAGACCGUCAAAUUGCGGGAAAGGGGUCAACAGCCGUUCAGUACCAAGUCUCAGGGGAAACUUUGAGAUGGCCUUGCAAAGGGUAUGGUAAUAAGCUGACGGACAUGGUCCUAACCACGCAGCCAAGUCCUAAGUCAACAGAUCUUCUGUUGAUAUGGAUGCAGUUCACAGACUAAAUGUCGGUCGGGGAAGAUGUAUUCUUCUCAUAAGAUAUAGUCGGACCUCUCCUUAAUGGGAGCUAGCGGAUGAAGUGAUGCAACACUGGAGCCGCUGGGAACUAAUUUGUAUGCGAAAGUAUAUUGAUUAGUUUUGGAGUACUCGUGGUCG
Outline: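 DiMSum derived fitness as the error-weighted combination of fold changes across replicates, kanamycin versus no kanamycin, normalised to wild type. E. coli BL21(DE3) held the library, which randomised all eight P1ex-region intron nucleotides within the knt kanamycin-resistance gene on pET-22b(+). Six replicate transformations grew overnight at 37°C or 30°C on LB agar with or without 25 μg/mL kanamycin, also containing 100 μg/mL carbenicillin, 50 μM IPTG and 0.2% rhamnose, and pooled colonies were amplicon-sequenced on an Illumina HiSeq 2500.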

CUUUAGCAAUAUUACGUUAU
self-splicing fitness (ln) (30 °C): -3.64 ± 0.23
self-splicing fitness (ln) (37 °C): -1.79 ± 0.19

GAAAAGCAAUAUUACGACAU
self-splicing fitness (ln) (30 °C): -0.184 ± 0.011
self-splicing fitness (ln) (37 °C): 0.116 ± 0.032

GAAAAGCAAUAUUACGACGU
self-splicing fitness (ln) (30 °C): 0.263 ± 0.088
self-splicing fitness (ln) (37 °C): 0.769 ± 0.099

GAAAAGCAAUAUUACGAUUU
self-splicing fitness (ln) (30 °C): -0.346 ± 0.052
self-splicing fitness (ln) (37 °C): -0.372 ± 0.073

GAAAAGCAAUAUUACGCCCU
self-splicing fitness (ln) (30 °C): 0.325 ± 0.12
self-splicing fitness (ln) (37 °C): -0.233 ± 0.14

GAAAAGCAAUAUUACGCGAC
self-splicing fitness (ln) (37 °C): 0.397 ± 0.26

GAAAAGCAAUAUUACGGACC
self-splicing fitness (ln) (30 °C): -0.128 ± 0.094
self-splicing fitness (ln) (37 °C): -0.398 ± 0.15

GAAAAGCAAUAUUACGGAUU
self-splicing fitness (ln) (30 °C): -2.03 ± 0.09
self-splicing fitness (ln) (37 °C): -1.03 ± 0.11

GAAAAGCAAUAUUACGGCAG
self-splicing fitness (ln) (30 °C): -3.02 ± 0.25
self-splicing fitness (ln) (37 °C): -1.96 ± 0.23

GAAAAGCAAUAUUACGGCGC
self-splicing fitness (ln) (30 °C): 0.706 ± 0.11
self-splicing fitness (ln) (37 °C): 0.245 ± 0.18

GAAAAGCAAUAUUACGGUCU
self-splicing fitness (ln) (30 °C): -0.737 ± 0.057
self-splicing fitness (ln) (37 °C): -0.398 ± 0.072

GAAAAGCAAUAUUACGGUGU
self-splicing fitness (ln) (30 °C): -2.55 ± 0.096
self-splicing fitness (ln) (37 °C): -0.927 ± 0.11

GAAAAGCAAUAUUACGGUUC
self-splicing fitness (ln) (30 °C): -3.18 ± 0.11
self-splicing fitness (ln) (37 °C): -2.88 ± 0.16

GAAAAGCAAUAUUACGGUUG
self-splicing fitness (ln) (30 °C): -2.39 ± 0.088
self-splicing fitness (ln) (37 °C): -1.42 ± 0.12

GAAAAGCAAUAUUACGUCGA
self-splicing fitness (ln) (30 °C): -1.14 ± 0.088
self-splicing fitness (ln) (37 °C): -0.0848 ± 0.12

GAAAAGCAAUAUUACGUCUG
self-splicing fitness (ln) (30 °C): -0.835 ± 0.068
self-splicing fitness (ln) (37 °C): -0.219 ± 0.084

GAAAAGCAAUAUUACGUCUU
self-splicing fitness (ln) (30 °C): -0.419 ± 0.068
self-splicing fitness (ln) (37 °C): 0.391 ± 0.086

GAAAAGCAAUAUUACGUGCA
self-splicing fitness (ln) (30 °C): -0.843 ± 0.073
self-splicing fitness (ln) (37 °C): -0.0478 ± 0.085

GAAAAGCAAUAUUACGUUCU
self-splicing fitness (ln) (30 °C): -3.87 ± 0.17
self-splicing fitness (ln) (37 °C): -3.19 ± 0.18

GAACAGCAAUAUUACGAAUA
self-splicing fitness (ln) (30 °C): -1.48 ± 0.098
self-splicing fitness (ln) (37 °C): -0.755 ± 0.11

GAACAGCAAUAUUACGACAC
self-splicing fitness (ln) (30 °C): -0.422 ± 0.08
self-splicing fitness (ln) (37 °C): 0.0163 ± 0.1

GAACAGCAAUAUUACGACUA
self-splicing fitness (ln) (30 °C): -0.346 ± 0.085
self-splicing fitness (ln) (37 °C): -0.46 ± 0.097

GAACAGCAAUAUUACGCAUG
self-splicing fitness (ln) (30 °C): -1.18 ± 0.064
self-splicing fitness (ln) (37 °C): -0.291 ± 0.08

GAACAGCAAUAUUACGCCUU
self-splicing fitness (ln) (30 °C): -0.755 ± 0.13
self-splicing fitness (ln) (37 °C): 0.356 ± 0.14

GAACAGCAAUAUUACGCGGC
self-splicing fitness (ln) (30 °C): -4 ± 0.43
self-splicing fitness (ln) (37 °C): -1.6 ± 0.23

GAACAGCAAUAUUACGCUAC
self-splicing fitness (ln) (30 °C): -4.08 ± 0.34
self-splicing fitness (ln) (37 °C): -1.64 ± 0.37

GAACAGCAAUAUUACGCUUC
self-splicing fitness (ln) (30 °C): -4.44 ± 0.19
self-splicing fitness (ln) (37 °C): -3.19 ± 0.2

GAACAGCAAUAUUACGGACG
self-splicing fitness (ln) (30 °C): -1.88 ± 0.11
self-splicing fitness (ln) (37 °C): -0.3 ± 0.12

GAACAGCAAUAUUACGGAUC
self-splicing fitness (ln) (30 °C): -0.794 ± 0.06
self-splicing fitness (ln) (37 °C): -0.441 ± 0.08

GAACAGCAAUAUUACGGAUU
self-splicing fitness (ln) (30 °C): -1.29 ± 0.076
self-splicing fitness (ln) (37 °C): -0.167 ± 0.093

GAACAGCAAUAUUACGGCAC
self-splicing fitness (ln) (30 °C): -0.296 ± 0.083
self-splicing fitness (ln) (37 °C): -0.0202 ± 0.1

GAACAGCAAUAUUACGGCAU
self-splicing fitness (ln) (30 °C): -0.904 ± 0.085
self-splicing fitness (ln) (37 °C): -0.254 ± 0.096

GAACAGCAAUAUUACGGCGA
self-splicing fitness (ln) (30 °C): -1.38 ± 0.09
self-splicing fitness (ln) (37 °C): -0.318 ± 0.077

GAACAGCAAUAUUACGGUUG
self-splicing fitness (ln) (30 °C): -2 ± 0.1
self-splicing fitness (ln) (37 °C): -0.692 ± 0.12

GAACAGCAAUAUUACGUAAA
self-splicing fitness (ln) (30 °C): -0.541 ± 0.061
self-splicing fitness (ln) (37 °C): 0.234 ± 0.075

GAACAGCAAUAUUACGUCUA
self-splicing fitness (ln) (30 °C): -0.567 ± 0.074
self-splicing fitness (ln) (37 °C): -0.586 ± 0.073

GAACAGCAAUAUUACGUGUG
self-splicing fitness (ln) (30 °C): -1.35 ± 0.054
self-splicing fitness (ln) (37 °C): -0.967 ± 0.069

GAAGAGCAAUAUUACGAACC
self-splicing fitness (ln) (30 °C): -1.82 ± 0.25
self-splicing fitness (ln) (37 °C): -1.13 ± 0.29
